This passage reports protein stability index results from the supplement of paper PMC10567573.

The chains are these.
B1: ADD1 (parent)
chain: GEGTGSPPKWQIGEQEFEALMRML
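Also: lentivirally expressed fusions sorted by FACS into six bins by GFP to DsRed ratio, PSI derived from sequencing read proportions per bin multiplied by bin number.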

Variants of B1 are the subject of this series. Put plainly: protein stability index of a GFP-peptide fusion (GPS, HEK-293T) (PSI 1-6); higher = more stable. The conditions noted are these: c terminus: a fixed tail appended.
In the case of GEGTGSPHKWQIGEQEFEALMRML [P8H], the protein stability index stood at 2.56.

On to GEGTGSPPKWQIGWQEFEALMRML [E14W], for which the protein stability index is 1.97.

For GEGTGSPPKWQIGMQEFEALMRML [E14M], the protein stability index is 2.72.

Take GEGTGSPPKWQIGRQEFEALMRML [E14R]: the protein stability index amounted to 2.6.

On to GEGTGSPPKWQIGPQEFEALMRML [E14P], for which the protein stability index came to 2.93.

With GEGTGSPPKWQIGNQEFEALMRML [E14N], the protein stability index worked out at 2.96.

GEGTGSPPKWQIGCQEFEALMRML [E14C]: the protein stability index worked out at 2.

As to GEGTGSPPKWQIGLQEFEALMRML [E14L], the protein stability index turned out to be 2.3.

In the case of GEGTGSPPKWQIGTQEFEALMRML [E14T], the protein stability index worked out at 2.79.

Turning to GEGTGSPPKWQIGFQEFEALMRML [E14F], the protein stability index came to 2.1.

Take GEGTGSPPKWQIGDQEFEALMRML [E14D]: the protein stability index stood at 3.17.

As for GEGTGSPPKWQIGIQEFEALMRML [E14I], the protein stability index stood at 3.39.

As for GEGTGSPPKWQIGAQEFEALMRML [E14A], the protein stability index stood at 3.16.

Take GEGTGSPPKWQIGGQEFEALMRML [E14G]: the protein stability index worked out at 2.92.

For GEGTGSPPKWQIGKQEFEALMRML [E14K], the protein stability index is 3.61.

For the variant GEGTGSPPKWQIGSQEFEALMRML [E14S], the protein stability index was determined as 2.94.

For the variant GEGTGSPPKWQIGYQEFEALMRML [E14Y], the protein stability index came to 1.8.

Consider GEGTGSPPKWQIGQQEFEALMRML [E14Q], for which the protein stability index came out at 3.19.

For GEGTGSPPKWQIGVQEFEALMRML [E14V], the protein stability index came to 2.29.

Regarding GEGTGSPPKWQIGHQEFEALMRML [E14H], the protein stability index amounted to 3.09.

In the case of GEGTGSPPKWQPGEQEFEALMRML [I12P], the protein stability index came to 3.72.

As to GEGTGSPPKWQAGEQEFEALMRML [I12A], the protein stability index was 3.9.

In the case of GEGTGSPPKWQKGEQEFEALMRML [I12K], the protein stability index was 3.03.

As to GEGTGSPPKWQLGEQEFEALMRML [I12L], the protein stability index was found to be 3.06.

For GEGTGSPPKWQNGEQEFEALMRML [I12N], the protein stability index turned out to be 3.55.

For GEGTGSPPKWQSGEQEFEALMRML [I12S], the protein stability index was determined as 3.83.

On to GEGTGSPPKWQTGEQEFEALMRML [I12T], for which the protein stability index turned out to be 3.7.

For GEGTGSPPKWQFGEQEFEALMRML [I12F], the protein stability index stood at 3.09.

On to GEGTGSPPKWQQGEQEFEALMRML [I12Q], for which the protein stability index is 4.11.

As to GEGTGSPPKWQRGEQEFEALMRML [I12R], the protein stability index came to 3.12.

Take GEGTGSPPKWQHGEQEFEALMRML [I12H]: the protein stability index was determined as 3.75.

For GEGTGSPPKWQWGEQEFEALMRML [I12W], the protein stability index turned out to be 2.81.

Consider GEGTGSPPKWQMGEQEFEALMRML [I12M], for which the protein stability index came out at 3.38.

On to GEGTGSPPKWQDGEQEFEALMRML [I12D], for which the protein stability index came out at 4.45.

As to GEGTGSPPKWQGGEQEFEALMRML [I12G], the protein stability index turned out to be 4.08.

For the variant GEGTGSPPKWQCGEQEFEALMRML [I12C], the protein stability index was 3.27.

Consider GEGTGSPPKWQEGEQEFEALMRML [I12E], for which the protein stability index was 4.45.

For GEGTGSPPKWQVGEQEFEALMRML [I12V], the protein stability index came to 3.22.

With GEGTGSPPKWQYGEQEFEALMRML [I12Y], the protein stability index was 3.69.

GEGTGSPPKWQILEQEFEALMRML [G13L]: the protein stability index was 2.84.

In the case of GEGTGSPPKWQIHEQEFEALMRML [G13H], the protein stability index was found to be 3.29.

Take GEGTGSPPKWQIKEQEFEALMRML [G13K]: the protein stability index came to 3.21.

GEGTGSPPKWQIAEQEFEALMRML [G13A]: the protein stability index amounted to 3.85.

Consider GEGTGSPPKWQIIEQEFEALMRML [G13I], for which the protein stability index was 2.92.

GEGTGSPPKWQISEQEFEALMRML [G13S]: the protein stability index amounted to 3.22.

Take GEGTGSPPKWQIMEQEFEALMRML [G13M]: the protein stability index stood at 2.94.

As to GEGTGSPPKWQIREQEFEALMRML [G13R], the protein stability index amounted to 2.99.

Consider GEGTGSPPKWQIFEQEFEALMRML [G13F], for which the protein stability index worked out at 2.69.

For GEGTGSPPKWQIVEQEFEALMRML [G13V], the protein stability index turned out to be 2.5.

For GEGTGSPPKWQINEQEFEALMRML [G13N], the protein stability index was 2.78.

Regarding GEGTGSPPKWQIPEQEFEALMRML [G13P], the protein stability index is 3.74.

With GEGTGSPPKWQIYEQEFEALMRML [G13Y], the protein stability index is 2.66.

Consider GEGTGSPPKWQITEQEFEALMRML [G13T], for which the protein stability index amounted to 2.74.

Take GEGTGSPPKWQIQEQEFEALMRML [G13Q]: the protein stability index amounted to 3.58.

In the case of GEGTGSPPKWQIDEQEFEALMRML [G13D], the protein stability index is 3.65.

Take GEGTGSPPKWQIWEQEFEALMRML [G13W]: the protein stability index was 3.37.

Turning to GEGTGSPPKWQIEEQEFEALMRML [G13E], the protein stability index is 4.05.

Turning to GEGTGSPPKWQICEQEFEALMRML [G13C], the protein stability index was 3.22.

As for GEGTGSPPKWQIGEQLFEALMRML [E16L], the protein stability index was determined as 1.4.

In the case of GEGTGSPPKWQIGEQGFEALMRML [E16G], the protein stability index was 2.5.

Turning to GEGTGSPPKWQIGEQPFEALMRML [E16P], the protein stability index stood at 2.61.

On to GEGTGSPPKWQIGEQIFEALMRML [E16I], for which the protein stability index turned out to be 1.31.

GEGTGSPPKWQIGEQVFEALMRML [E16V]: the protein stability index was 1.6.

As for GEGTGSPPKWQIGEQFFEALMRML [E16F], the protein stability index worked out at 1.59.

For the variant GEGTGSPPKWQIGEQNFEALMRML [E16N], the protein stability index was 3.1.

In the case of GEGTGSPPKWQIGEQKFEALMRML [E16K], the protein stability index is 2.53.

In the case of GEGTGSPPKWQIGEQDFEALMRML [E16D], the protein stability index stood at 3.52.

Consider GEGTGSPPKWQIGEQAFEALMRML [E16A], for which the protein stability index is 2.33.

Take GEGTGSPPKWQIGEQHFEALMRML [E16H]: the protein stability index came out at 2.8.

In the case of GEGTGSPPKWQIGEQRFEALMRML [E16R], the protein stability index came out at 2.51.

Turning to GEGTGSPPKWQIGEQMFEALMRML [E16M], the protein stability index was 1.74.

Consider GEGTGSPPKWQIGEQCFEALMRML [E16C], for which the protein stability index was 2.75.

Consider GEGTGSPPKWQIGEQTFEALMRML [E16T], for which the protein stability index is 2.4.

For GEGTGSPPKWQIGEQSFEALMRML [E16S], the protein stability index was determined as 3.06.

Consider GEGTGSPPKWQIGEQQFEALMRML [E16Q], for which the protein stability index is 2.37.

As to GEGTGSPPKWQIGEYEFEALMRML [Q15Y], the protein stability index turned out to be 2.25.

GEGTGSPPKWQIGESEFEALMRML [Q15S]: the protein stability index is 3.13.

Consider GEGTGSPPKWQIGEREFEALMRML [Q15R], for which the protein stability index was 2.59.

For GEGTGSPPKWQIGELEFEALMRML [Q15L], the protein stability index turned out to be 2.22.

As to GEGTGSPPKWQIGEAEFEALMRML [Q15A], the protein stability index worked out at 2.75.

Regarding GEGTGSPPKWQIGETEFEALMRML [Q15T], the protein stability index stood at 3.09.

As for GEGTGSPPKWQIGEMEFEALMRML [Q15M], the protein stability index is 2.6.

GEGTGSPPKWQIGEVEFEALMRML [Q15V]: the protein stability index stood at 2.39.

Regarding GEGTGSPPKWQIGEEEFEALMRML [Q15E], the protein stability index was 3.33.

Take GEGTGSPPKWQIGEWEFEALMRML [Q15W]: the protein stability index was 1.86.

On to GEGTGSPPKWQIGEGEFEALMRML [Q15G], for which the protein stability index amounted to 2.99.

Consider GEGTGSPPKWQIGEDEFEALMRML [Q15D], for which the protein stability index worked out at 3.48.

Turning to GEGTGSPPKWQIGEPEFEALMRML [Q15P], the protein stability index amounted to 3.51.

Regarding GEGTGSPPKWQIGEIEFEALMRML [Q15I], the protein stability index was 2.49.

On to GEGTGSPPKWQIGECEFEALMRML [Q15C], for which the protein stability index amounted to 2.9.

As for GEGTGSPPKWQIGENEFEALMRML [Q15N], the protein stability index is 3.03.

Take GEGTGSPPKWQIGEHEFEALMRML [Q15H]: the protein stability index stood at 2.83.

Turning to GEGTGSPPKWQIGEKEFEALMRML [Q15K], the protein stability index came to 2.47.

For the variant GEGTGSPPKWQIGEFEFEALMRML [Q15F], the protein stability index was 2.33.
